In patent publication US20120263734A1 (THERACLONE SCIENCES, published 2012):

B1: 2N9 human anti-CMV antibody (antibody, V domains shown)
VH: QVQLVESGGGVVQPGRSLRLSCAASGFTFSSNGIHWVRQAPGKGLDWVAVISSDANDKQYADSVKGRFTISRDNSKNMVYLQMNSLRVEDTAVYFCARDGTCSGGNCYSGLIDYWGRGILVTVSS
VL: EIVLTQSPATLSLSPGERATLSCRASQSVGGYLAWYQQKPGQAPRLLIYDASIRATGIPARFSGSGSGTDFTLTISSLEPEDFAVYYCHQRSNWPPLTFGGGTKVDIKR
B2: 2F10 human anti-CMV antibody (antibody, V domains shown)
VH: QVHLVESGGGVVQPGRALRLSCAATGFTFSNHGIHWVRQAPGKGLEWLAVISSDGDDDRYADSVKGRFSVSRDNSKNTVHLQMNGLRPDDTAIYFCARDGRCGEPKCYSGLPDYWGRGTLVTVSS
VL: EIVLTQSPATLSLSPGDRATLSCRASQSVGGYLAWYQQKPGQAPRLLLYDASNRATGIPARFSGSGSGTDFTLTISSLEPEDFALYYCLQRNTWPPLTFGGGTKVEIKR
B3: 5P9 human anti-CMV antibody (antibody, V domains shown)
VH: QVQLVESGGGVIQPGRSLRLSCVASKFIFSNHGIHWVRQAPGKGLEWVAVISKDGTNAHYADSVRGRFSISRDNSKDTVFLEMRSLRPEDTAVYYCAREGRCIEEKCYSGQIDYWGQGSLVTVSS
VL: EILLTQSPATLSLSPGERATLSCRASQSVGRYMAWYQQRPGQAPRLLIYDASIRATGIPARFSGSGSGTDFTLTISSLQTEDFAIYYCQQRSSWPPLTFGGGTKVEIKR
B4: 4P12 human anti-CMV antibody (antibody, V domains shown)
VH: QVQLVESGGGVIQPGRSLRLSCVASKFIFSNHGIHWVRQAPGKGLEWVAVISKDGTNAHYADSVRGRFSISRDNSKDTVFLEMRSLRPEDTAVYYCAREGRCIEENCYSGQIDYWGQGSLVTVSS
VL: EILLTQSPATLSLSPGERATLSCRASQSVGRYMAWYQQRPGQAPRLLIYDASIRATGIPARFSGSGSGTDFTLTISSLQPEDFAIYYCQQRSSWPPLTFGGGTKVEIKR

Molecular target: GPCMV gB (glycoprotein B of Guinea Pig CMV strain V545/82) (guinea pig CMV (GPCMV))
Assay: cell-based or functional assay

| Binder | neutralization of GPCMV V545/82 entry into JH4 cells (highest concentration tested, no effect) [µg/mL] |
| --- | --- |
| B1 | > 300 |
| B2 | > 300 |
| B3 | > 300 |
| B4 | > 300 |
